Measurements as given in patent US7071384B2, “Methods for commercial production of heterologous laccase in plant tissue and extraction of the laccase from plant seed” (Genencor International, Inc., priority 1997, dated 2006).

Columns and labels:
[1] = Effect of protease inhibitors on avidin stability in flaked maize kernel extract (biotin binding activity); assay type: physicochemical; conditions: control avidin dissolved in extraction buffer
Procedure: Dry maize kernels (12% MC; 500 g per batch) were first cracked using a roller mill (Ferrell-Ross, Oklahoma City, Okla.), then flaked to 0.3 mm thickness using Roskamp flaking rolls (Model K, Roskamp Mfg., Inc., Waterloo, Iowa.). The particle size distribution of flaked material was determined by sieving (see Table 1).
Twenty grams of flaked kernels were extracted with 200 ml of Tris-HCl pH 7.9 containing 500 mM NaCl, 1 mM CaCl2 with stirring for 30 min at ambient temperature. One extraction was performed in the absence of protease inhibitors (control) and one in the presence of a protease inhibitor mixture containing 10 mM 2-mercaptoethanol (2-ME), 5 mM ethylenediamine tetraacetic acid (EDTA), 0.1 mM phenylmethanesulfonyl fluoride (PMSF), and 0.2 mM Diazo-N-acetyl-N-Leu-MeO. EDTA and 2-ME were added at the beginning of the extraction, and PMSF and diazo-N-acetyl-N-Leu-MeO were added 15 minutes after the extraction began. The insoluble residue was separated by centrifugation at 20,500×g for 25 minutes at 0° C. The supernatant was filtered through four layers of cheesecloth. […] D: Residual avidin activity in cooked egg white assayed with improved sensitivity. J. Food Sci. 56:707 (1991].and for protein integrity on western blots. For a positive control, chicken egg white avidin (Sigma Chemical Co.) was dissolved in the extraction buffer and samples were taken as above for activity assays.

[2] = Isoelectric point determination; assay type: physicochemical; conditions: 10 is the highest pI that can be experimentally determined
[3] = Biotin inhibition of HABA binding to avidin; conditions: competitive binding of biotin and HABA to avidin
Excerpt: The normalized absorbance value was obtained by subtracting from all the absorbance values, the value at which the absorbance change stopped.
In vivo, avidin exists as a homotetramer and its activity is to bind biotin to protect avian and reptilian eggs from pathogen invasion. Based upon this biotin-binding property, an analog of biotin, HABA, is utilized for the quantification of activity. Using the HABA binding assay, estimates of total avidin amounts in the fractions eluted from the affinity column were identical to estimates made by ELISA.

egg white: native chicken egg white avidin (Sigma Chemical Co.)
avidin activity in extraction buffer ([1]; 0 h): 88.2 µg/mL | avidin activity in extraction buffer ([1]; 1 h): 62.6 µg/mL | avidin activity in extraction buffer ([1]; 3 h): 61.1 µg/mL | avidin activity in extraction buffer ([1]; 6 h): 60.6 µg/mL | avidin activity in extraction buffer ([1]; 22 h): 59.6 µg/mL | pI [2]: 10 | Ki [3]: 3.2 µM
